Experimental data: article PMC3337157 (Small GTPases, 2011)

Target: T1, Rnd1 mutant W66L (residues 5-200) (UniProt Q92730 5-200, W66L)
T1 sequence (looked up): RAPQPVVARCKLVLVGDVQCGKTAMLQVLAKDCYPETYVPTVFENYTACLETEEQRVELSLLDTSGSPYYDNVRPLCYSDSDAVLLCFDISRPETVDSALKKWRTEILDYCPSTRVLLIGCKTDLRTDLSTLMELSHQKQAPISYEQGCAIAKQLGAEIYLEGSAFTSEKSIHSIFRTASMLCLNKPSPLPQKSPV
Experiment: ITC

- Ka: 209000 M⁻¹
- Kd: 4.8 ± 0.5 µM
- dH: -3.9 ± 0.1 kcal/mol
- stoichiometry N: 0.98
B1: plexin-B1 Rho GTPase binding domain (RBD) (domain or fragment)
chain: DVEYRPLTLNALLAVGPGAGEAQGVPVKVLDCDTISQAKEKMLDQLYKGVPLTQRPDPRTLDVEWRSGVAGHLILSDEDVTSEVQGLWRRLNTLQHYKVPDGATVALVPCLTKHVLRENQ
